B1: SPOPL (parent)
chain: YTGRAPNLDKMADNLLAAADKYAL
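Further: lentivirally expressed fusions sorted by FACS into six bins by GFP to DsRed ratio, PSI derived from sequencing read proportions per bin multiplied by bin number.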

Variants of: B1
Assay: protein stability index of a GFP-peptide fusion (GPS, HEK-293T) (PSI 1-6); higher = more stable
Conditions: c terminus: a fixed tail appended
YTGRDPNLDKMADNLLAAADKYAL [A5D] showed a protein stability index of 3.19. YTGRHPNLDKMADNLLAAADKYAL [A5H] showed a protein stability index of 1.47. For YTGRTPNLDKMADNLLAAADKYAL [A5T], the protein stability index was 2.42. Variant YTGRFPNLDKMADNLLAAADKYAL [A5F] has a protein stability index of 2.31. In the case of YTGRYPNLDKMADNLLAAADKYAL [A5Y], the protein stability index is reported as 1.41. YTGRAPNLDKMFDNLLAAADKYAL [A12F] gave a protein stability index of 1.58. With YTGRAPNLDKMIDNLLAAADKYAL [A12I] the protein stability index was 2.87. YTGRAPNLDKMRDNLLAAADKYAL [A12R] showed a protein stability index of 1.56. YTGRAPNLDKMWDNLLAAADKYAL [A12W] showed a protein stability index of 1.32. Variant YTGRAPNLDKMMDNLLAAADKYAL [A12M] has a protein stability index of 2.64. In the case of YTGRAPNLDKMNDNLLAAADKYAL [A12N], the protein stability index is reported as 2.88. Work on YTGRAPNLDKMTDNLLAAADKYAL [A12T] yielded a protein stability index of 2.97. YTGRAPNLDKMSDNLLAAADKYAL [A12S] showed a protein stability index of 2.2. YTGRAPNLDKMPDNLLAAADKYAL [A12P] gave a protein stability index of 2.54. Variant YTGRAPNLDKMHDNLLAAADKYAL [A12H] has a protein stability index of 2.33. With YTGRAPNLDKMKDNLLAAADKYAL [A12K] the protein stability index was 1.97. Work on YTGRAPNLDKMDDNLLAAADKYAL [A12D] yielded a protein stability index of 2.92. Variant YTGRAPNLDKMCDNLLAAADKYAL [A12C] has a protein stability index of 2.56. YTGRAPNLDKMYDNLLAAADKYAL [A12Y] gave a protein stability index of 1.77. For YTGRAPNLDKMGDNLLAAADKYAL [A12G], the protein stability index was 2.36. YTGRAPNLDKMQDNLLAAADKYAL [A12Q] showed a protein stability index of 2.07. For YTGRAPNLDKMEDNLLAAADKYAL [A12E], the protein stability index was 2.05. YTGRAPNLDKMLDNLLAAADKYAL [A12L] showed a protein stability index of 1.53. YTGRAINLDKMADNLLAAADKYAL [P6I] gave a protein stability index of 1.85. YTGRARNLDKMADNLLAAADKYAL [P6R] gave a protein stability index of 2.44. YTGRADNLDKMADNLLAAADKYAL [P6D] gave a protein stability index of 2.31. Variant YTGRAWNLDKMADNLLAAADKYAL [P6W] has a protein stability index of 5. Work on YTGRAYNLDKMADNLLAAADKYAL [P6Y] yielded a protein stability index of 1.75. Work on YTGRAGNLDKMADNLLAAADKYAL [P6G] yielded a protein stability index of 1.68. Variant YTGRATNLDKMADNLLAAADKYAL [P6T] has a protein stability index of 2.16. In the case of YTGRAFNLDKMADNLLAAADKYAL [P6F], the protein stability index is reported as 2.09. Variant YTGRACNLDKMADNLLAAADKYAL [P6C] has a protein stability index of 1.65. Work on YTGRAMNLDKMADNLLAAADKYAL [P6M] yielded a protein stability index of 2.2. With YTGRAHNLDKMADNLLAAADKYAL [P6H] the protein stability index was 1.09. With YTGRAANLDKMADNLLAAADKYAL [P6A] the protein stability index was 1.88. YTGRANNLDKMADNLLAAADKYAL [P6N] gave a protein stability index of 2.49. With YTGRASNLDKMADNLLAAADKYAL [P6S] the protein stability index was 2.16. YTGRAVNLDKMADNLLAAADKYAL [P6V] showed a protein stability index of 2.11. In the case of YTGRAENLDKMADNLLAAADKYAL [P6E], the protein stability index is reported as 2.82. Variant YTGRAQNLDKMADNLLAAADKYAL [P6Q] has a protein stability index of 2.19. Variant YTGRAKNLDKMADNLLAAADKYAL [P6K] has a protein stability index of 1.43. For YTGRAPNLDKVADNLLAAADKYAL [M11V], the protein stability index was 3.05. YTGRAPNLDKRADNLLAAADKYAL [M11R] showed a protein stability index of 2.05. YTGRAPNLDKKADNLLAAADKYAL [M11K] gave a protein stability index of 2.15. YTGRAPNLDKYADNLLAAADKYAL [M11Y] showed a protein stability index of 1.31. For YTGRAPNLDKCADNLLAAADKYAL [M11C], the protein stability index was 1.55. For YTGRAPNLDKSADNLLAAADKYAL [M11S], the protein stability index was 2.62. With YTGRAPNLDKIADNLLAAADKYAL [M11I] the protein stability index was 2.32. With YTGRAPNLDKDADNLLAAADKYAL [M11D] the protein stability index was 2.42. With YTGRAPNLDKQADNLLAAADKYAL [M11Q] the protein stability index was 2.34. For YTGRAPNLDKFADNLLAAADKYAL [M11F], the protein stability index was 1.73. For YTGRAPNLDKAADNLLAAADKYAL [M11A], the protein stability index was 2.02. YTGRAPNLDKTADNLLAAADKYAL [M11T] gave a protein stability index of 2.62. Work on YTGRAPNLDKEADNLLAAADKYAL [M11E] yielded a protein stability index of 2.56. Variant YTGRAPNLDKGADNLLAAADKYAL [M11G] has a protein stability index of 1.62. YTGRAPNLDKWADNLLAAADKYAL [M11W] showed a protein stability index of 2.21. With YTGRAPNLDKNADNLLAAADKYAL [M11N] the protein stability index was 2.43. With YTGRAPNLDKHADNLLAAADKYAL [M11H] the protein stability index was 2.47. YTGRAPNLDKPADNLLAAADKYAL [M11P] showed a protein stability index of 2.56. Variant YTGRAPNLDKLADNLLAAADKYAL [M11L] has a protein stability index of 2.44. YTGRAPNLDTMADNLLAAADKYAL [K10T] showed a protein stability index of 1.75. Work on YTGRAPNLDYMADNLLAAADKYAL [K10Y] yielded a protein stability index of 1.61. Work on YTGRAPNLDMMADNLLAAADKYAL [K10M] yielded a protein stability index of 2.41. YTGRAPNLDHMADNLLAAADKYAL [K10H] showed a protein stability index of 1.97. With YTGRAPNLDAMADNLLAAADKYAL [K10A] the protein stability index was 1.81. YTGRAPNLDQMADNLLAAADKYAL [K10Q] gave a protein stability index of 1.75. In the case of YTGRAPNLDNMADNLLAAADKYAL [K10N], the protein stability index is reported as 2.6. Work on YTGRAPNLDGMADNLLAAADKYAL [K10G] yielded a protein stability index of 2.25. YTGRAPNLDFMADNLLAAADKYAL [K10F] showed a protein stability index of 1.68. YTGRAPNLDVMADNLLAAADKYAL [K10V] gave a protein stability index of 1.75. In the case of YTGRAPNLDIMADNLLAAADKYAL [K10I], the protein stability index is reported as 1.49. Variant YTGRAPNLDRMADNLLAAADKYAL [K10R] has a protein stability index of 1.43. With YTGRAPNLDDMADNLLAAADKYAL [K10D] the protein stability index was 1.91. Variant YTGRAPNLDSMADNLLAAADKYAL [K10S] has a protein stability index of 2.83. With YTGRAPNLDEMADNLLAAADKYAL [K10E] the protein stability index was 2.23. YTGRAPNLDCMADNLLAAADKYAL [K10C] gave a protein stability index of 1.35. With YTGRAPNLDPMADNLLAAADKYAL [K10P] the protein stability index was 2.42. For YTGRAPNLDLMADNLLAAADKYAL [K10L], the protein stability index was 1.89. YTGRAPSLDKMADNLLAAADKYAL [N7S] gave a protein stability index of 1.65. In the case of YTGRAPILDKMADNLLAAADKYAL [N7I], the protein stability index is reported as 1.81. Work on YTGRAPHLDKMADNLLAAADKYAL [N7H] yielded a protein stability index of 1.68. With YTGRAPKLDKMADNLLAAADKYAL [N7K] the protein stability index was 1.68. Variant YTGRAPALDKMADNLLAAADKYAL [N7A] has a protein stability index of 1.98. In the case of YTGRAPELDKMADNLLAAADKYAL [N7E], the protein stability index is reported as 1.99. Variant YTGRAPWLDKMADNLLAAADKYAL [N7W] has a protein stability index of 1.84. In the case of YTGRAPRLDKMADNLLAAADKYAL [N7R], the protein stability index is reported as 1.48. For YTGRAPYLDKMADNLLAAADKYAL [N7Y], the protein stability index was 1.27. Variant YTGRAPFLDKMADNLLAAADKYAL [N7F] has a protein stability index of 3.09. Variant YTGRAPCLDKMADNLLAAADKYAL [N7C] has a protein stability index of 1.86. With YTGRAPTLDKMADNLLAAADKYAL [N7T] the protein stability index was 2.06. Variant YTGRAPVLDKMADNLLAAADKYAL [N7V] has a protein stability index of 1.7. YTGRAPGLDKMADNLLAAADKYAL [N7G] gave a protein stability index of 1.89. In the case of YTGRAPQLDKMADNLLAAADKYAL [N7Q], the protein stability index is reported as 2.39. Variant YTGRAPDLDKMADNLLAAADKYAL [N7D] has a protein stability index of 2.34.

Source: the supplement of paper PMC10567573
